# Assay results published in paper PMC4682845.
# Target: MERS-CoV main protease (M^pro), wild type, authentic N-terminus (MERS-CoV)
# Test: AUC
# Sequence of MERS-CoV main protease (M^pro), wild type, authentic N-terminus (enzyme) (K9N638 3248-3553 limits assumed): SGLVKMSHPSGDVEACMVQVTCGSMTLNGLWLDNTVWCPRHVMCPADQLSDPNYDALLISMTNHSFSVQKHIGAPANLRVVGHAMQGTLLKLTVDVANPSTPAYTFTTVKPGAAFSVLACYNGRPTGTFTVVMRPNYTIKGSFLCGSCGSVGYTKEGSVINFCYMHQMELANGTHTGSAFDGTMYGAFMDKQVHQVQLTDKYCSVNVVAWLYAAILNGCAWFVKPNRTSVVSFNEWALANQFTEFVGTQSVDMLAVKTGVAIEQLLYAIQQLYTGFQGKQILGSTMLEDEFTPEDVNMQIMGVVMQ
substance,measurement,value
"MERS-CoV main protease (M^pro), wild type, authentic N-terminus (enzyme)",percent dimer,70%
